# Test results from patent US20250122303A1, “TREATMENT AND PREVENTION OF CANCER USING HER3 ANTIGEN-BINDING MOLECULES” (Hummingbird Bioscience Pte. Ltd., priority 2021, published 2025).
# Experiments:
# [1] = biological target: T1, human HER3 (HEK293 HER3 O/E cells) (Homo sapiens, UniProt P21860); assay: Cell surface antigen-binding by flow cytometry
# T1 construct: expressed in transfected cells; host or cells: HEK293
# Method: The cells were washed thrice with FACS buffer (PBS with 5 mM EDTA and 0.5% BSA) and resuspended in FITC-conjugated anti-FC antibody (Invitrogen, USA) for 40 min at 2-8° C. Cells were washed again and resuspended in 200 μL of FACS flow buffer (PBS with 5 mM EDTA) for flow cytometric analysis using MACSQuant 10 (Miltenyi Biotec, Germany). After acquisition, all raw data were analyzed using Flowlogic software. Cells were gated using forward and side scatter profile percentage of positive cells was determined for native and overexpressing cell populations.
# The cells were washed with buffer (PBS with 2 mM EDTA and 0.5% BSA) and resuspended in FITC-conjugated anti-FC antibody (Invitrogen, USA) at 10 μg/ml for 20 min at 4° C. Cells were washed again and resuspended in 200 μL of FACS flow buffer (PBS with 5 mM EDTA) for flow cytometric analysis using MACSQuant 10 (Miltenyi Biotec, Germany). Unstained WT and transfected HEK293 cells were included in the analysis as negative controls. After acquisition, all raw data were analyzed using Flowlogic software. Cells were gated using forward and side scatter profile percentage of positive cells was determined for native and overexpressing cell populations.
# [2] = tested on: cynomolgus macaque HER3; assay: ELISA cross-reactivity, cynomolgus macaque HER3; format: binding
# Method: ELISAs were used to determine the binding specificity of the antibodies. The antibodies were analysed for binding to human HER3 polypeptide, as well as respective mouse, rat and monkey homologues of HER3 (Sino Biological Inc., China). The antibodies were also analysed for their ability to bind to human EGFR and human HER2 (Sino Biological Inc., China).
# ELISAs were carried out according to standard protocols. Briefly, 96-well plates (Nunc, Denmark) were coated with 0.1 μg/ml of target polypeptide in phosphate-buffered saline (PBS) for 16 h at 4° C. After blocking for 1 h with 1% BSA in Tris buffer saline (TBS) at room temperature, the anti-HER3 antibody was serially diluted with the highest concentration being 10 μg/ml, and added to the plate. Post 1 h incubation at room temperature, plates were washed three times with TBS containing 0.05% Tween 20 (TBS-T) and were then incubated with a HRP-conjugated anti-His antibody (Life Technologies, Inc., USA) for 1 h at room temperature. After washing, plates were developed with colorimetric detection substrate 3,3′,5,5′-tetramethylbenzidine (Turbo-TMB; Pierce, USA) for 10 min. The reaction was stopped with 2M H2SO4, and OD was measured at 450 nm. […]
# [3] = tested on: FaDu cells; assay: Phosphoprotein Antibody Array; format: cell-based, human; conditions: 50 μg/ml 4 hrs, NRG 100 ng/ml
# Method: FaDu cells were seeded in wells of a 6 well plate with 10% serum at 37° C., 5% CO2. After 16 hrs, cells were starved by culture overnight in 1% FBS cell culture medium. On the following day cells were treated with 50 μg/ml anti-HER3 antibody 10D1 for 4 hrs, followed by 15 min stimulation with NRG (100 ng/ml). Proteins were then extracted, quantified using standard Bradford protein assay, and incubated overnight with pre-blocked Phosphoprotein Antibody Array membrane (Ray Biotech) at 4° C. The membrane was then washed with washing buffer and incubated with detection antibody cocktail for 2 hrs at room temperature, followed by washing and incubation with HRP-Conjugated anti-IgG. After 2 hrs the membrane was washed and probed using the kit detection buffer. Images were captured with Syngene Gbox imaging system, the intensity of each dot/phosphoprotein was measured and percent inhibition was calculated by comparison with intensity measured for cells treated in the same way in the absence of the antibody.
# [4] = tested on: N87 cell-line derived mouse gastric carcinoma model; assay: N87 cell-line derived xenograft model; format: in vivo; conditions: N87, IP biweekly 500 μg, 10 doses
# Method: Tumor volumes were measured 3 times a week using a digital caliper and calculated using the formula [L ×W2/2]. Study End point was considered to have been reaches once the tumors of the control arm measured >1.5 cm in length.
# The model was established by subcutaneous injection of 1×10^6 N87 cells into the right flank (n=6 mice per treatment group).
# 10D1 was administered IP, biweekly at 500 μg per dose (for a total of 10 doses); a control treatment group received an equal volume of PBS.
# Tumour cells are inserted with matrigel subcutaneously into the right flanks of female NCr nude mice.
# Murine tumour efficacy studies were performed using cell-line derived xenograft (CDX) models in mice. Female NCr nude mice (5-8 weeks old, 21-29 g) were subcutaneously implanted with N87, A549, FaDu, OvCAR8 cells. Treatment was initiated when tumours reached approximately 100 to 200 mm^3. Vehicle (PBS) or therapeutic antibodies (25 mg/kg) were administered intraperitoneally (IP) at indicated time points (weekly FaDu and OvCAR8, twice weekly N87 and A549). Tumours were measured twice per week using a calliper and tumour volume (mm^3) was calculated. Each data point represents the mean tumour volume ±SEM (n=8 mice).
# [5] = tested on: A549 cell-line derived mouse model of lung adenocarcinoma; assay: A549 cell-line derived xenograft model; format: in vivo; conditions: A549, NCr nude mice, IP biweekly 500 μg, 10 doses
molecule,measurement,setting,value
"10D1: anti-HER3 antibody clone, VH SEQ ID NO:24, VL SEQ ID NO:74; [1] of Example 2.2 (antibody, V domains shown) VH: DVQLQESGPDLVKPSQSLSLTCTVTGYSITSGYSWHWIRQFPGNKLEWMGSIHYSGGTNYNPSLKSRISITRDTSKNQFFLQLNSVTTEDTATYFCARMTTAPRYPFDYWGQGTTLTVSS VL: DIVMTQSQKFMSTSVGDRVSVTCKASQIVGSNVAWYQQKPGQSPKPLIYSASYRYSGVPDRFTASGSGTDFTLTITNVQSEDLAEYFCQQYSSHPLTFGAGTKLELK",extent of binding to human HER3-expressing cells,[1]; 10 μg/ml antibody,bind to human HER3-expressing cells to a similar extent
same,extent of binding to human HER3-expressing cells,[1]; 20 μg/ml antibody,bind to human HER3-expressing cells to a similar extent
same,binding / cross-reactivity with cynomolgus macaque HER3,[2],substantial cross-reactivity
same,intracellular signalling pathways affected,[3],inhibit P13K/AKT/mTOR and MAPK signalling
same,inhibition of tumor growth,[4],~76%
same,inhibition of tumor growth,[5],~91%
